Target: Sambucus nigra agglutinin (Sambucus nigra)
Assay: localized surface plasmon resonance

Chain of Sambucus nigra agglutinin (Sambucus nigra) (Q41358 29-289 limits assumed, chain 1 of 2): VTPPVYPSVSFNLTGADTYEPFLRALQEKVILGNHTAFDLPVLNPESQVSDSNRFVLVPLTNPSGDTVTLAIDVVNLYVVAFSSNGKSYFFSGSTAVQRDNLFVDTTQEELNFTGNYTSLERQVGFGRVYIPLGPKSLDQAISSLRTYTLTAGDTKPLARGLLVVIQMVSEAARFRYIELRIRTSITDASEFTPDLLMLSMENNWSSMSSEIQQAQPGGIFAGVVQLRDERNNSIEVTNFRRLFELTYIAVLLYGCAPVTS
Chain of Sambucus nigra agglutinin (Sambucus nigra) (Q41358 309-570 limits assumed, chain 2 of 2): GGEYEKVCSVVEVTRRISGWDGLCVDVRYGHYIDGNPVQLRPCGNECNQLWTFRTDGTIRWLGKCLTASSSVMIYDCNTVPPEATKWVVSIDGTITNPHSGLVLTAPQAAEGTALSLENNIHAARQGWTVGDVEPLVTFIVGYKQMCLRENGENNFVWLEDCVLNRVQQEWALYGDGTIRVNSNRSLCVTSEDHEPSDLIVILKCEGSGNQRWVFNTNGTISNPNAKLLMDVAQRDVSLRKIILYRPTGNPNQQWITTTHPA

Substance: α-1 acid glycoprotein (from UniProt P02763 19-201) (natural protein)
- Kd: 31 µM

Source: PMC7347289
